In US20150344570A1 (published 2015):

T1: FcγRIIb extracellular domain with C-terminal His tag (human, UniProt P31994 43-217)
T1 construct: extracellular domain; also called 2b; FcgRIIb
T1 sequence (looked up): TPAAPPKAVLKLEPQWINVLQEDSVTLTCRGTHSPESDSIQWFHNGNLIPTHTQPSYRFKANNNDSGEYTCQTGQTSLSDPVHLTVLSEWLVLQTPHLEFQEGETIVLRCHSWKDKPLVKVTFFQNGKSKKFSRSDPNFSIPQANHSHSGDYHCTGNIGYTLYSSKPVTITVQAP

T2: FcγRIIb, extracellular domain with C-terminal His tag (human, UniProt P31994 43-217)
T2 construct: extracellular domain; also called 2b; FcgRIIb; not shown: His tag at the C terminus
T2 sequence (looked up): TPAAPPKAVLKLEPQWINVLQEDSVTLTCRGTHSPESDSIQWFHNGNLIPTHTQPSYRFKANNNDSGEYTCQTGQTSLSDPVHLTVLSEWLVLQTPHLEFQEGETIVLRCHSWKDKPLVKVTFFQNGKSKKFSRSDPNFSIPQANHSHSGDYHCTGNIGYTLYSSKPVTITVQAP

T3: FcγRIIa H (FcgRIIa type H, His at position 131), extracellular domain with C-terminal His tag (human, UniProt P12318 34-217)
T3 construct: extracellular domain; also called 2aH; FcgRIIa H; not shown: His tag at the C terminus
T3 sequence (looked up): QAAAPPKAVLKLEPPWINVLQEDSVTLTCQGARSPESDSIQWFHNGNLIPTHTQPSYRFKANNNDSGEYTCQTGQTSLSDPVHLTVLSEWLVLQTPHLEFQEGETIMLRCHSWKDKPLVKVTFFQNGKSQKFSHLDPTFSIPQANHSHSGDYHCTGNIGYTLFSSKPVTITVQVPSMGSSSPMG


Columns and labels:
[1] = biological target: T4, FcγRIIIa extracellular domain with C-terminal His tag (human, UniProt P08637 17-208); experiment: SPR, binding relative to GpH7-A5/GpH7-B3/GpL16-k0 = 100
T4 construct: extracellular domain; also called 3a; FcgRIIIa

[2] = biological target: T1, FcγRIIb extracellular domain with …; experiment: as above
[3] = biological target: T2, FcγRIIb, extracellular domain with …; experiment: SPR (Biacore), relative binding, GpH7-A5/GpH7-B3/GpL16-k0 = 100
[4] = biological target: T3, FcγRIIa H (FcgRIIa type H, His at …); experiment: as above

T4 sequence (P08637 17-208): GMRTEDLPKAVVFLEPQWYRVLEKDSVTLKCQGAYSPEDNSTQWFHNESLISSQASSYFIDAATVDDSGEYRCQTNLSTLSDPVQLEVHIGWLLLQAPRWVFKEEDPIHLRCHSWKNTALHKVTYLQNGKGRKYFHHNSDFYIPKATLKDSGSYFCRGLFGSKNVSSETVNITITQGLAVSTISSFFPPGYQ

Row | Binder | He/Con_3a [1] | He/Con_2b [2] | He/Con_2b [3] | He/Con_2aH [4]
1 | GpH7-A5/GpH7-B3 variant S337_01G/GpL16-k0 (antibody, human IgG1, kappa, also called He Ab) heavy 1: not shown heavy 2: not shown light: DIVMTQSPLSLPVTPGEPASISCQASESLVHSNRNTYLHWYLQKPGQSPQLLIYKVSNRFSGVPDRFSGSGSGTDFTLKISRVEAEDVGVYYCSQNTHVPPTFGQGTKVEIERTVAAPSVFIFPPSDEQLKSGTASVVCLLNNFYPREAKVQWKVDNALQSGNSQESVTEQDSKDSTYSLSSTLTLSKADYEKHKVYACEVTHQGLSSPVTKSFNRGEC | 102 % of control | 92 % of control |  | 
2 | GpH7-A5/GpH7-B3 variant K334_10E/GpL16-k0 (antibody, human IgG1, kappa, He Ab; alteration in one H chain only; also called He Ab) heavy 1: not shown heavy 2: not shown light: DIVMTQSPLSLPVTPGEPASISCQASESLVHSNRNTYLHWYLQKPGQSPQLLIYKVSNRFSGVPDRFSGSGSGTDFTLKISRVEAEDVGVYYCSQNTHVPPTFGQGTKVEIERTVAAPSVFIFPPSDEQLKSGTASVVCLLNNFYPREAKVQWKVDNALQSGNSQESVTEQDSKDSTYSLSSTLTLSKADYEKHKVYACEVTHQGLSSPVTKSFNRGEC |  |  | 114 % of control | 98.2 % of control
3 | GpH7-A5/GpH7-B3 variant T335_06M/GpL16-k0 (antibody, human IgG1, kappa, also called He Ab) heavy 1: not shown heavy 2: not shown light: DIVMTQSPLSLPVTPGEPASISCQASESLVHSNRNTYLHWYLQKPGQSPQLLIYKVSNRFSGVPDRFSGSGSGTDFTLKISRVEAEDVGVYYCSQNTHVPPTFGQGTKVEIERTVAAPSVFIFPPSDEQLKSGTASVVCLLNNFYPREAKVQWKVDNALQSGNSQESVTEQDSKDSTYSLSSTLTLSKADYEKHKVYACEVTHQGLSSPVTKSFNRGEC | 102 % of control | 99.4 % of control |  | 
4 | GpH7-A5/GpH7-B3 variant A330_01G/GpL16-k0 (antibody, human IgG1, kappa, He Ab; alteration in one H chain only; also called He Ab) heavy 1: not shown heavy 2: not shown light: DIVMTQSPLSLPVTPGEPASISCQASESLVHSNRNTYLHWYLQKPGQSPQLLIYKVSNRFSGVPDRFSGSGSGTDFTLKISRVEAEDVGVYYCSQNTHVPPTFGQGTKVEIERTVAAPSVFIFPPSDEQLKSGTASVVCLLNNFYPREAKVQWKVDNALQSGNSQESVTEQDSKDSTYSLSSTLTLSKADYEKHKVYACEVTHQGLSSPVTKSFNRGEC |  |  | 104 % of control | 99 % of control
5 | GpH7-A5/GpH7-B3 variant T335_05P/GpL16-k0 (antibody, human IgG1, kappa, also called He Ab) heavy 1: not shown heavy 2: not shown light: DIVMTQSPLSLPVTPGEPASISCQASESLVHSNRNTYLHWYLQKPGQSPQLLIYKVSNRFSGVPDRFSGSGSGTDFTLKISRVEAEDVGVYYCSQNTHVPPTFGQGTKVEIERTVAAPSVFIFPPSDEQLKSGTASVVCLLNNFYPREAKVQWKVDNALQSGNSQESVTEQDSKDSTYSLSSTLTLSKADYEKHKVYACEVTHQGLSSPVTKSFNRGEC | 105 % of control | 99.9 % of control |  | 
6 | GpH7-A5/GpH7-B3 variant S337_04F/GpL16-k0 (antibody, human IgG1, kappa, also called He Ab) heavy 1: not shown heavy 2: not shown light: DIVMTQSPLSLPVTPGEPASISCQASESLVHSNRNTYLHWYLQKPGQSPQLLIYKVSNRFSGVPDRFSGSGSGTDFTLKISRVEAEDVGVYYCSQNTHVPPTFGQGTKVEIERTVAAPSVFIFPPSDEQLKSGTASVVCLLNNFYPREAKVQWKVDNALQSGNSQESVTEQDSKDSTYSLSSTLTLSKADYEKHKVYACEVTHQGLSSPVTKSFNRGEC | 101 % of control | 97.8 % of control |  | 
7 | GpH7-A5/GpH7-B3 variant K326_20W/GpL16-k0 (antibody, human IgG1, kappa, He Ab; alteration in one H chain only; also called He Ab) heavy 1: not shown heavy 2: not shown light: DIVMTQSPLSLPVTPGEPASISCQASESLVHSNRNTYLHWYLQKPGQSPQLLIYKVSNRFSGVPDRFSGSGSGTDFTLKISRVEAEDVGVYYCSQNTHVPPTFGQGTKVEIERTVAAPSVFIFPPSDEQLKSGTASVVCLLNNFYPREAKVQWKVDNALQSGNSQESVTEQDSKDSTYSLSSTLTLSKADYEKHKVYACEVTHQGLSSPVTKSFNRGEC |  |  | 148 % of control | 83.3 % of control
8 | GpH7-A5/GpH7-B3 variant K334_02A/GpL16-k0 (antibody, human IgG1, kappa, He Ab; alteration in one H chain only; also called He Ab) heavy 1: not shown heavy 2: not shown light: DIVMTQSPLSLPVTPGEPASISCQASESLVHSNRNTYLHWYLQKPGQSPQLLIYKVSNRFSGVPDRFSGSGSGTDFTLKISRVEAEDVGVYYCSQNTHVPPTFGQGTKVEIERTVAAPSVFIFPPSDEQLKSGTASVVCLLNNFYPREAKVQWKVDNALQSGNSQESVTEQDSKDSTYSLSSTLTLSKADYEKHKVYACEVTHQGLSSPVTKSFNRGEC |  |  | 108 % of control | 97 % of control
9 | GpH7-A5/GpH7-B3 variant K326_15Y/GpL16-k0 (antibody, human IgG1, kappa, He Ab; alteration in one H chain only; also called He Ab) heavy 1: not shown heavy 2: not shown light: DIVMTQSPLSLPVTPGEPASISCQASESLVHSNRNTYLHWYLQKPGQSPQLLIYKVSNRFSGVPDRFSGSGSGTDFTLKISRVEAEDVGVYYCSQNTHVPPTFGQGTKVEIERTVAAPSVFIFPPSDEQLKSGTASVVCLLNNFYPREAKVQWKVDNALQSGNSQESVTEQDSKDSTYSLSSTLTLSKADYEKHKVYACEVTHQGLSSPVTKSFNRGEC |  |  | 159 % of control | 98.3 % of control
10 | GpH7-A5/GpH7-B3 variant A327_07I/GpL16-k0 (antibody, human IgG1, kappa, He Ab; alteration in one H chain only; also called He Ab) heavy 1: not shown heavy 2: not shown light: DIVMTQSPLSLPVTPGEPASISCQASESLVHSNRNTYLHWYLQKPGQSPQLLIYKVSNRFSGVPDRFSGSGSGTDFTLKISRVEAEDVGVYYCSQNTHVPPTFGQGTKVEIERTVAAPSVFIFPPSDEQLKSGTASVVCLLNNFYPREAKVQWKVDNALQSGNSQESVTEQDSKDSTYSLSSTLTLSKADYEKHKVYACEVTHQGLSSPVTKSFNRGEC |  |  | 127 % of control | 58.4 % of control
11 | GpH7-A5/GpH7-B3 variant K326_16H/GpL16-k0 (antibody, human IgG1, kappa, He Ab; alteration in one H chain only; also called He Ab) heavy 1: not shown heavy 2: not shown light: DIVMTQSPLSLPVTPGEPASISCQASESLVHSNRNTYLHWYLQKPGQSPQLLIYKVSNRFSGVPDRFSGSGSGTDFTLKISRVEAEDVGVYYCSQNTHVPPTFGQGTKVEIERTVAAPSVFIFPPSDEQLKSGTASVVCLLNNFYPREAKVQWKVDNALQSGNSQESVTEQDSKDSTYSLSSTLTLSKADYEKHKVYACEVTHQGLSSPVTKSFNRGEC |  |  | 119 % of control | 97.9 % of control
12 | GpH7-A5/GpH7-B3 variant A327_01G/GpL16-k0 (antibody, human IgG1, kappa, He Ab; alteration in one H chain only; also called He Ab) heavy 1: not shown heavy 2: not shown light: DIVMTQSPLSLPVTPGEPASISCQASESLVHSNRNTYLHWYLQKPGQSPQLLIYKVSNRFSGVPDRFSGSGSGTDFTLKISRVEAEDVGVYYCSQNTHVPPTFGQGTKVEIERTVAAPSVFIFPPSDEQLKSGTASVVCLLNNFYPREAKVQWKVDNALQSGNSQESVTEQDSKDSTYSLSSTLTLSKADYEKHKVYACEVTHQGLSSPVTKSFNRGEC |  |  | 116 % of control | 97.2 % of control
13 | GpH7-A5/GpH7-B3 variant K334_05P/GpL16-k0 (antibody, human IgG1, kappa, He Ab; alteration in one H chain only; also called He Ab) heavy 1: not shown heavy 2: not shown light: DIVMTQSPLSLPVTPGEPASISCQASESLVHSNRNTYLHWYLQKPGQSPQLLIYKVSNRFSGVPDRFSGSGSGTDFTLKISRVEAEDVGVYYCSQNTHVPPTFGQGTKVEIERTVAAPSVFIFPPSDEQLKSGTASVVCLLNNFYPREAKVQWKVDNALQSGNSQESVTEQDSKDSTYSLSSTLTLSKADYEKHKVYACEVTHQGLSSPVTKSFNRGEC |  |  | 105 % of control | 97.6 % of control
14 | GpH7-A5/GpH7-B3 variant A327_18N/GpL16-k0 (antibody, human IgG1, kappa, He Ab; alteration in one H chain only; also called He Ab) heavy 1: not shown heavy 2: not shown light: DIVMTQSPLSLPVTPGEPASISCQASESLVHSNRNTYLHWYLQKPGQSPQLLIYKVSNRFSGVPDRFSGSGSGTDFTLKISRVEAEDVGVYYCSQNTHVPPTFGQGTKVEIERTVAAPSVFIFPPSDEQLKSGTASVVCLLNNFYPREAKVQWKVDNALQSGNSQESVTEQDSKDSTYSLSSTLTLSKADYEKHKVYACEVTHQGLSSPVTKSFNRGEC |  |  | 113 % of control | 66.8 % of control
15 | GpH7-A5/GpH7-B3 variant A330_05P/GpL16-k0 (antibody, human IgG1, kappa, He Ab; alteration in one H chain only; also called He Ab) heavy 1: not shown heavy 2: not shown light: DIVMTQSPLSLPVTPGEPASISCQASESLVHSNRNTYLHWYLQKPGQSPQLLIYKVSNRFSGVPDRFSGSGSGTDFTLKISRVEAEDVGVYYCSQNTHVPPTFGQGTKVEIERTVAAPSVFIFPPSDEQLKSGTASVVCLLNNFYPREAKVQWKVDNALQSGNSQESVTEQDSKDSTYSLSSTLTLSKADYEKHKVYACEVTHQGLSSPVTKSFNRGEC |  |  | 137 % of control | 85.7 % of control
16 | GpH7-A5/GpH7-B3 variant Y300_08L/GpL16-k0 (antibody, human IgG1, kappa, also called He Ab) heavy 1: not shown heavy 2: not shown light: DIVMTQSPLSLPVTPGEPASISCQASESLVHSNRNTYLHWYLQKPGQSPQLLIYKVSNRFSGVPDRFSGSGSGTDFTLKISRVEAEDVGVYYCSQNTHVPPTFGQGTKVEIERTVAAPSVFIFPPSDEQLKSGTASVVCLLNNFYPREAKVQWKVDNALQSGNSQESVTEQDSKDSTYSLSSTLTLSKADYEKHKVYACEVTHQGLSSPVTKSFNRGEC | 105 % of control | 73.6 % of control |  | 
17 | GpH7-A5/GpH7-B3 variant A327_10E/GpL16-k0 (antibody, human IgG1, kappa, He Ab; alteration in one H chain only; also called He Ab) heavy 1: not shown heavy 2: not shown light: DIVMTQSPLSLPVTPGEPASISCQASESLVHSNRNTYLHWYLQKPGQSPQLLIYKVSNRFSGVPDRFSGSGSGTDFTLKISRVEAEDVGVYYCSQNTHVPPTFGQGTKVEIERTVAAPSVFIFPPSDEQLKSGTASVVCLLNNFYPREAKVQWKVDNALQSGNSQESVTEQDSKDSTYSLSSTLTLSKADYEKHKVYACEVTHQGLSSPVTKSFNRGEC |  |  | 140 % of control | 91.3 % of control
